# Experimental data taken from the supplement of paper PMC10567573.
# B1: PI4K2A (parent)
# chain: FVKDPQGRIIAVFKPKNEEPYGHL
# Variants of: B1
# Test: protein stability index of a GFP-peptide fusion (GPS, HEK-293T) (PSI 1-6); higher = more stable
# Conditions: c terminus: a fixed tail appended
# 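Note: lentivirally expressed fusions sorted by FACS into six bins by GFP to DsRed ratio, PSI derived from sequencing read proportions per bin multiplied by bin number.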
row,Variant,protein stability index
1,FVADPQGRIIAVFKPKNEEPYGHL [K3A],1.57
2,FVKDPQGRSIAVFKPKNEEPYGHL [I9S],2.61
3,FVKDPQGRDIAVFKPKNEEPYGHL [I9D],3.44
4,FVKDPQGRRIAVFKPKNEEPYGHL [I9R],1.59
5,FVKDPQGRVIAVFKPKNEEPYGHL [I9V],2.56
6,FVKDPQGRWIAVFKPKNEEPYGHL [I9W],2.5
7,FVKDPQGREIAVFKPKNEEPYGHL [I9E],2.17
8,FVKDPQGRLIAVFKPKNEEPYGHL [I9L],2.06
9,FVKDPQGRYIAVFKPKNEEPYGHL [I9Y],1.9
10,FVKDPQGRTIAVFKPKNEEPYGHL [I9T],2.34
11,FVKDPQGRCIAVFKPKNEEPYGHL [I9C],1.85
12,FVKDPQGRNIAVFKPKNEEPYGHL [I9N],4.29
13,FVKDPQGRQIAVFKPKNEEPYGHL [I9Q],1.67
14,FVKDPQGRFIAVFKPKNEEPYGHL [I9F],2.01
15,FVKDPQGRKIAVFKPKNEEPYGHL [I9K],2.63
16,FVKDPQGFIIAVFKPKNEEPYGHL [R8F],2.27
17,FVKDPQGCIIAVFKPKNEEPYGHL [R8C],2.37
18,FVKDPQGEIIAVFKPKNEEPYGHL [R8E],1.98
19,FVKDPQGYIIAVFKPKNEEPYGHL [R8Y],1.6
20,FVKDPQGWIIAVFKPKNEEPYGHL [R8W],1.14
21,FVKDPQGLIIAVFKPKNEEPYGHL [R8L],1.81
22,FVKDPQGGIIAVFKPKNEEPYGHL [R8G],2.47
23,FVKDPQGIIIAVFKPKNEEPYGHL [R8I],2.72
24,FVKDPQGSIIAVFKPKNEEPYGHL [R8S],3.87

row,Variant,protein stability index
1,FVKDPQGNIIAVFKPKNEEPYGHL [R8N],1.31
2,FVKDPQGVIIAVFKPKNEEPYGHL [R8V],1.72
3,FVKDPQGAIIAVFKPKNEEPYGHL [R8A],2.51
4,FVKDPQGMIIAVFKPKNEEPYGHL [R8M],2.87
5,FVKDPQGKIIAVFKPKNEEPYGHL [R8K],1.61
6,FVKDPQGTIIAVFKPKNEEPYGHL [R8T],3.95
7,FVKDPQGHIIAVFKPKNEEPYGHL [R8H],1.93
8,FVKDPQGQIIAVFKPKNEEPYGHL [R8Q],1.92
9,FVKDTQGRIIAVFKPKNEEPYGHL [P5T],1.67
10,FVKDYQGRIIAVFKPKNEEPYGHL [P5Y],2.28
11,FVKDHQGRIIAVFKPKNEEPYGHL [P5H],2.51
12,FVKDQQGRIIAVFKPKNEEPYGHL [P5Q],2.83
13,FVKDKQGRIIAVFKPKNEEPYGHL [P5K],2.07
14,FVKDAQGRIIAVFKPKNEEPYGHL [P5A],1.83
15,FVKDRQGRIIAVFKPKNEEPYGHL [P5R],2.16
16,FVKDMQGRIIAVFKPKNEEPYGHL [P5M],1.3
17,FVKDNQGRIIAVFKPKNEEPYGHL [P5N],2.29
18,FVKDWQGRIIAVFKPKNEEPYGHL [P5W],2.7
19,FVKDGQGRIIAVFKPKNEEPYGHL [P5G],1.5
20,FVKDCQGRIIAVFKPKNEEPYGHL [P5C],1.66
21,FVKDEQGRIIAVFKPKNEEPYGHL [P5E],2.04
22,FVKDDQGRIIAVFKPKNEEPYGHL [P5D],2.03
23,FVKDLQGRIIAVFKPKNEEPYGHL [P5L],1.39
24,FYKDPQGRIIAVFKPKNEEPYGHL [V2Y],1.95

row,Variant,protein stability index
1,FVKDPQGRIIAKFKPKNEEPYGHL [V12K],1.38
2,FVKDPQGRIIAHFKPKNEEPYGHL [V12H],2.9
3,FVKDPQGRIIATFKPKNEEPYGHL [V12T],2.54
4,FVKDPQGRIIAWFKPKNEEPYGHL [V12W],1.45
5,FVKDPQGRIIAYFKPKNEEPYGHL [V12Y],1.93
6,FVKDPQGRIIAAFKPKNEEPYGHL [V12A],3.17
7,FVKDPQGRIIAIFKPKNEEPYGHL [V12I],1.85
8,FVKDPQGRIIAGFKPKNEEPYGHL [V12G],2.44
9,FVKDPQGRIIADFKPKNEEPYGHL [V12D],1.56
10,FVKDPQGRIIAMFKPKNEEPYGHL [V12M],2
11,FVKDPQGRIIARFKPKNEEPYGHL [V12R],1.96
12,FVKDPQGRIIAEFKPKNEEPYGHL [V12E],1.74
13,FVKDPQGRIIAQFKPKNEEPYGHL [V12Q],2.5
14,FVKDPQGRIIALFKPKNEEPYGHL [V12L],2.07
15,FVKDPQGRIIAPFKPKNEEPYGHL [V12P],2.46
16,FVKDPQGRIIASFKPKNEEPYGHL [V12S],2.72
17,FVKDPQGRIIAFFKPKNEEPYGHL [V12F],2.84
18,FVKDPQGRIIACFKPKNEEPYGHL [V12C],2.04
19,FVKDPNGRIIAVFKPKNEEPYGHL [Q6N],1.84
20,FVKDPLGRIIAVFKPKNEEPYGHL [Q6L],2.22
21,FVKDPKGRIIAVFKPKNEEPYGHL [Q6K],1.64
22,FVKDPEGRIIAVFKPKNEEPYGHL [Q6E],1.63
23,FVKDPPGRIIAVFKPKNEEPYGHL [Q6P],2.21
24,FVKDPFGRIIAVFKPKNEEPYGHL [Q6F],1.62

row,Variant,protein stability index
1,FVKDPRGRIIAVFKPKNEEPYGHL [Q6R],1.49
2,FVKDPCGRIIAVFKPKNEEPYGHL [Q6C],1.54
3,FVKDPYGRIIAVFKPKNEEPYGHL [Q6Y],1.6
4,FVKDPWGRIIAVFKPKNEEPYGHL [Q6W],1.7
5,FVKDPSGRIIAVFKPKNEEPYGHL [Q6S],1.6
6,FVKDPIGRIIAVFKPKNEEPYGHL [Q6I],1.45
7,FVKDPDGRIIAVFKPKNEEPYGHL [Q6D],2.4
8,FVKDPMGRIIAVFKPKNEEPYGHL [Q6M],1.57
9,FVKDPAGRIIAVFKPKNEEPYGHL [Q6A],1.71
10,FVKDPTGRIIAVFKPKNEEPYGHL [Q6T],2.32
11,FVKDPHGRIIAVFKPKNEEPYGHL [Q6H],1.1
12,FVKDPVGRIIAVFKPKNEEPYGHL [Q6V],2.53
13,FVKDPGGRIIAVFKPKNEEPYGHL [Q6G],1.92
14,FVKDPQGRIIAVFIPKNEEPYGHL [K14I],1.97
15,FVKDPQGRIIAVFHPKNEEPYGHL [K14H],2.03
16,FVKDPQGRIIAVFCPKNEEPYGHL [K14C],2.56
17,FVKDPQGRIIAVFFPKNEEPYGHL [K14F],2.67
18,FVKDPQGRIIAVFGPKNEEPYGHL [K14G],2.46
19,FVKDPQGRIIAVFLPKNEEPYGHL [K14L],2.08
20,FVKDPQGRIIAVFAPKNEEPYGHL [K14A],2.09
21,FVKDPQGRIIAVFEPKNEEPYGHL [K14E],2.09
22,FVKDPQGRIIAVFDPKNEEPYGHL [K14D],2.49
